Results taken from patent US20200308270A1 (Zymeworks, published 2020).

Legend:
[1] = target: T1, human recombinant FcgammaR receptor CD32aR (human, UniProt P12318 34-217, limits assumed); test: SPR (ProteOn), Mab captured via anti-human Fc, FcgammaR analyte
T1 sequence (looked up): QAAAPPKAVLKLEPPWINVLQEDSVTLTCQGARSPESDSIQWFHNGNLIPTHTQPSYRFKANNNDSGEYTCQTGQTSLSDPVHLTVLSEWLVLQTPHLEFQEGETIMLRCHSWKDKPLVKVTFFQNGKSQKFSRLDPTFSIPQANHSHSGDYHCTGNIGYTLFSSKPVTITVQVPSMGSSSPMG
Procedure: (§1) Goat polyclonal anti-human Fc antibody was purchased from Jackson Immuno Research Laboratories Inc. (West Grove, Pa.). […] Human recombinant FcγR receptors: CD16aV, CD32bF, CD32aR, and CD32aH were expressed as constructs containing a His10-tag at the C-terminus and purified by Ni-affinity chromatography followed by His-tag removal and SEC purification.
(§2) FcγR affinity determination was carried out as follows. The screening of Mabs for binding to various FcγR receptors occurred in two steps: an indirect capture of Mab samples onto the anti-human Fc-specific polyclonal antibody surface, followed by the injection of five concentrations of each of FcγR receptors. The anti-human Fc surface was prepared on a GLC sensorchip by amine coupling. GLC sensorchip surface was activated by a 1:10 dilution of the standard BioRad sNHS/EDC solutions injected for 140s at 100 μL/min in the analyte (horizontal) direction. Immediately after the activation, 25 microg/mL solution of anti-human Fc in 10 mM NaOAc pH 4.5 was injected in the analyte direction at a flow rate of 25 microL/min for 240s until approximately 4500 or 2500 resonance units (RUs) were immobilized. Remaining active groups were quenched by a 300s injection of 1M ethanolamine at 30 μL/min also in the analyte direction. Mabs for analysis were indirectly captured onto the anti-human Fc surface by injecting 10 microg/ml solutions in the ligand (vertical) direction at a flow rate of 25 microL/min for 240s. Each of the FcγR receptors was subsequently injected in the analyte (horizontal) direction. Firstly, two buffer injections for 30s at 100 microL/min in the analyte (horizontal) direction were used to stabilize the baseline. Five concentrations of a three-fold dilution series of each of the four FcγR receptors starting at 10 μM with a blank buffer control were then simultaneously injected at 50 microL/min for 120 s with a 3 minute dissociation phase, resulting in a set of binding sensorgrams with a buffer reference. […] Sensorgrams were aligned and double-referenced using the buffer blank injection and interspots, and the resulting sensorgrams were analyzed using ProteOn Manager software v3.1.

[2] = target: human recombinant FcgammaR receptor CD16aV (human, UniProt P08637 17-208, limits assumed); test: as above
human recombinant FcgammaR receptor CD16aV, sequence (P08637 17-208 F176V limits assumed): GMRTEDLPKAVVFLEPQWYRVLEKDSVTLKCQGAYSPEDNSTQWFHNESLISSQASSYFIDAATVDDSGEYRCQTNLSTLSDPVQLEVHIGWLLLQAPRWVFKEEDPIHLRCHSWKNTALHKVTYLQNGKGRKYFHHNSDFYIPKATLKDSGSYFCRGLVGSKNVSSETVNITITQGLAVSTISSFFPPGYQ
Procedure: as §1, §2

recombinant human IL-17A [3] = target: T2, recombinant human IL-17A (human, UniProt Q16552 20-155, limits assumed); test: SPR (ProteOn), IL-17A immobilized, Mab analyte
T2 construct: Bought reagent
T2 sequence (Q16552 20-155 limits assumed): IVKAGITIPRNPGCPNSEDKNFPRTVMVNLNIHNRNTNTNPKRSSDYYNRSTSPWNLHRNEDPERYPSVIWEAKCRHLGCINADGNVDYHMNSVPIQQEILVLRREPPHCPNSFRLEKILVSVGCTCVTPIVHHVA
Procedure: (§3) IL-17 affinity determination was carried out as follows. The IL-17A surface was generated using a GLC sensorchip activated by a 1:10 dilution of the standard BioRad sNHS/EDC solutions injected for 140s at 100 pt/min in the ligand (vertical) direction. Immediately after the activation, 1 to 4 microg/mL solution of IL-17A in 10 mM NaOAc pH 4.5 was injected in the ligand (vertical) direction at a flow rate of 25 or 100 microL/min until approximately 75-200 resonance units (RUs) were immobilized. Remaining active groups were quenched by a 140s injection of 1M ethanolamine at 100 μL/min also in the ligand direction. […] Firstly, two buffer injections for 30s at 100 microL/min in the analyte (horizontal) direction were used to stabilize the baseline. […] Sensorgrams were aligned and double-referenced using the buffer blank injection and interspots, and the resulting sensorgrams were analyzed using ProteOn Manager software v3.1. The double-referenced sensorgrams were fit to the Langmuir binding model.

human recombinant FcRn = target: T3, human recombinant FcRn (human, UniProt P55899 24-297; P61769 21-119, limits assumed); test: SPR (ProteOn), FcRn immobilized, Mab analyte, pH 5.8
T3 construct: also called neonatal receptor
T3 sequence (P55899 24-297 limits assumed, chain 1 of 2): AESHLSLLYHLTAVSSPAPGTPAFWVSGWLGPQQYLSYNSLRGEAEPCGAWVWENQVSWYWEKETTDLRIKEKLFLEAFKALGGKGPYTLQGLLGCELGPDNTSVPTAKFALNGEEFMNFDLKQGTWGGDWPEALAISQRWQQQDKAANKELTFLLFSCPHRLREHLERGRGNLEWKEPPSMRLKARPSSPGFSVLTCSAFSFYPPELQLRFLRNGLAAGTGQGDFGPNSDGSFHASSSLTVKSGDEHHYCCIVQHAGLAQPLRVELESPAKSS
T3 sequence (P61769 21-119 limits assumed, chain 2 of 2): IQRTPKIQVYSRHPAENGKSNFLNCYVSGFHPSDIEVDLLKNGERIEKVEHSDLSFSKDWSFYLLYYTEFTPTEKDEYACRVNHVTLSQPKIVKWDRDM
Procedure: FcRn affinity determination was carried out as follows. FcRn surface was generated using a GLC sensorchip activated by a 1:10 dilution of the standard BioRad sNHS/EDC solutions injected for 140s at 100 μL/min in the ligand (vertical) direction. Immediately after the activation, 10 microg/mL solution of FcRn in 10 mM NaOAc pH 4.5 was injected in the ligand (vertical) direction at a flow rate of 25 microL/min for 120s until approximately 2000 resonance units (RUs) were immobilized. Remaining active groups were quenched by a 140s injection of 1M ethanolamine at 30 μL/min also in the ligand direction. The running buffer used on the FcRn surface was PBST pH 5.8. The screening of the Mabs for binding to FcRn was performed by injection of purified Mabs in the analyte (horizontal) direction. Firstly, two buffer injections for 30s at 100 microL/min in the analyte (horizontal) direction were used to stabilize the baseline. Five concentrations of a three-fold dilution series of each Mab starting at 100 nM with a blank buffer control were simultaneously injected at 50 microL/min for 120 s with a 10 minute dissociation phase, resulting in a set of binding sensorgrams with a buffer reference. […] Sensorgrams were aligned and double-referenced using the buffer blank injection and interspots, and the resulting sensorgrams were analyzed using ProteOn Manager software v3.1. The double-referenced sensorgrams were fit to the Langmuir binding model.

recombinant human IL-17A [4] = target: T2, recombinant human IL-17A; test: SPR (ProteOn), IL-17A immobilized, Fab analyte;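 note: IL-17A amine-coupled on a GLC sensor chip at roughly 75–200 RU, double-referenced sensorgrams fitted with a Langmuir binding model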
Procedure: as §3

recombinant human HER3 = target: T4, recombinant human HER3 (human, UniProt P21860 20-643); test: SPR (ProteOn), Mab captured via anti-human Fc, HER3 analyte
T4 construct: Bought reagent
Procedure: HER3 affinity determination in Mabs was carried out as follows. The screening of Mabs for binding to HER3 antigen occurred in two steps: an indirect capture of Mabs onto the anti-human Fc-specific polyclonal antibody surface, followed by the injection of five concentrations of HER3. The anti-human Fc surface was prepared on a GLC sensorchip by amine coupling. GLC sensorchip surface was activated by a 1:10 dilution of the standard BioRad sNHS/EDC solutions injected for 140s at 100 pt/min in the analyte (horizontal) direction. Immediately after the activation, 25 microg/mL solution of anti-human Fc in 10 mM NaOAc pH 4.5 was injected in the ligand (vertical) direction at a flow rate of 25 microL/min for 240s until approximately 3000 resonance units (RUs) were immobilized. Remaining active groups were quenched by a 140s injection of 1M ethanolamine at 100 μL/min also in the analyte direction. Mabs for analysis were indirectly captured onto the anti-Fc surface by injecting 20 microg/mL solutions in the ligand (vertical) direction at a flow rate of 25 microL/min for 240s. HER3 was subsequently injected in the analyte (horizontal) direction. Firstly, two buffer injections for 30s at 100 microL/min in the analyte (horizontal) direction were used to stabilize the baseline. […] Sensorgrams were aligned and double-referenced using the buffer blank injection and interspots, and the resulting sensorgrams were analyzed using ProteOn Manager software v3.1. The double-referenced sensorgrams were fit to the Langmuir binding model.

B1: CAT-2200 wild-type lambda Mab (antibody, human IgG1, lambda)
heavy: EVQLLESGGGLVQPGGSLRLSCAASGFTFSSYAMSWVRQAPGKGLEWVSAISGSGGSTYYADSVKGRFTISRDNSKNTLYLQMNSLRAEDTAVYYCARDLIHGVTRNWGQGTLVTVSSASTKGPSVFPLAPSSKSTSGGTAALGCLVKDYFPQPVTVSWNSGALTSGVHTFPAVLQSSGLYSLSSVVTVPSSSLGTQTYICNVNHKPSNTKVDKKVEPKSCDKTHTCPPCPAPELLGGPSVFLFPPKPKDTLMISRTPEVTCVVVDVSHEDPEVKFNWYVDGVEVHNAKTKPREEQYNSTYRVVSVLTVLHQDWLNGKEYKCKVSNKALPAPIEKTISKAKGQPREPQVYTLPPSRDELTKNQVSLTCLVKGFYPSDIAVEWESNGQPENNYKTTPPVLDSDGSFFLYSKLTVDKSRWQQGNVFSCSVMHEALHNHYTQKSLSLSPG
light: NFMLTQPHSVSESPGKTVTISCTRSSGSLANYYVQWYQQRPGSSPTIVIFANNQRPSGVPDRFSGSIDSSSNSASLTISGLKTEDEADYYCQTYDPYSVVFGGGTKLTVLGQPKAAPSVTLFPPSSEELQANKATLVCLISDFYPGAVTVAWKADSSPVKAGVETTTPSKQSNNKYAASSYLSLTPEQWKSHRSYSCQVTHEGSTVEKTVAPTECS
notes: IgG1 Mab format; also called WT
**Q.** Which results are given for B1?
**A.** Kd [1]: 2400 nM; Kd [2]: 1200 nM; Kd (recombinant human IL-17A [3]): 0.027 nM; Kd (human recombinant FcRn): 14.2 nM

B2: CAT-2200 designed Vlambda-Ckappa chimeric Fab, design 30 (E83I) (Fab, V domains shown)
VH: not shown
VL: NFMLTQPHSVSESPGKTVTISCTRSSGSLANYYVQWYQQRPGSSPTIVIFANNQRPSGVPDRFSGSIDSSSNSASLTISGLKTEDIADYYCQTYDPYSVVFGGGTKLTVLR
**Q.** For B2, which Kd (recombinant human IL-17A [4]) is on record?
**A.** 0.3 nM

B3: CAT-2200 designed Vlambda-Ckappa chimeric Fab, design 39 (E83A_D85T_T105E_V106I) (Fab, V domains shown)
VH: not shown
VL: NFMLTQPHSVSESPGKTVTISCTRSSGSLANYYVQWYQQRPGSSPTIVIFANNQRPSGVPDRFSGSIDSSSNSASLTISGLKTEDAATYYCQTYDPYSVVFGGGTKLEILR
**Q.** Which Kd (recombinant human IL-17A [4]) does the source give for B3 here?
**A.** 0.2 nM

B4: CAT-2200 designed Vlambda-Ckappa chimeric Fab, design 38 (E83A_D85T_T105E) (Fab, V domains shown)
VH: not shown
VL: NFMLTQPHSVSESPGKTVTISCTRSSGSLANYYVQWYQQRPGSSPTIVIFANNQRPSGVPDRFSGSIDSSSNSASLTISGLKTEDAATYYCQTYDPYSVVFGGGTKLEVLR
**Q.** With B4 as the binder, how does the Kd (recombinant human IL-17A [4]) read?
**A.** 0.2 nM

B5: CAT-2200 designed Vlambda-Ckappa chimeric Fab, design 33 (E83I_D85T_T105E) (Fab, V domains shown)
VH: not shown
VL: NFMLTQPHSVSESPGKTVTISCTRSSGSLANYYVQWYQQRPGSSPTIVIFANNQRPSGVPDRFSGSIDSSSNSASLTISGLKTEDIATYYCQTYDPYSVVFGGGTKLEVLR
**Q.** With B5 as the binder, how does the Kd (recombinant human IL-17A [4]) read?
**A.** 0.3 nM

B6: CAT-2200 designed Vlambda-Ckappa chimeric Fab, design 35 (E83A) (Fab, V domains shown)
VH: not shown
VL: NFMLTQPHSVSESPGKTVTISCTRSSGSLANYYVQWYQQRPGSSPTIVIFANNQRPSGVPDRFSGSIDSSSNSASLTISGLKTEDAADYYCQTYDPYSVVFGGGTKLTVLR
**Q.** Which Kd (recombinant human IL-17A [4]) does the source give for B6 here?
**A.** 0.2 nM

B7: CAT-2200 designed Vlambda-Ckappa chimeric Fab, design 34 (E83I_D85T_T105E_V106I) (Fab, V domains shown)
VH: not shown
VL: NFMLTQPHSVSESPGKTVTISCTRSSGSLANYYVQWYQQRPGSSPTIVIFANNQRPSGVPDRFSGSIDSSSNSASLTISGLKTEDIATYYCQTYDPYSVVFGGGTKLEILR
**Q.** With B7 as the binder, how does the Kd (recombinant human IL-17A [4]) read?
**A.** 0.2 nM

B8: CAT-2200 designed Vlambda-Ckappa chimeric Fab, design 37 (E83A_D85T) (Fab, V domains shown)
VH: not shown
VL: NFMLTQPHSVSESPGKTVTISCTRSSGSLANYYVQWYQQRPGSSPTIVIFANNQRPSGVPDRFSGSIDSSSNSASLTISGLKTEDAATYYCQTYDPYSVVFGGGTKLTVLR
**Q.** With B8 as the binder, how does the Kd (recombinant human IL-17A [4]) read?
**A.** 0.2 nM

B9: CAT-2200 designed Vlambda-Ckappa chimeric Fab, design 32 (E83I_D85T) (Fab, V domains shown)
VH: not shown
VL: NFMLTQPHSVSESPGKTVTISCTRSSGSLANYYVQWYQQRPGSSPTIVIFANNQRPSGVPDRFSGSIDSSSNSASLTISGLKTEDIATYYCQTYDPYSVVFGGGTKLTVLR
**Q.** With B9 as the binder, how does the Kd (recombinant human IL-17A [4]) read?
**A.** 0.3 nM

B10: CAT-2200 designed Vlambda-Ckappa chimeric Fab, design 31 (E83I_T105E) (Fab, V domains shown)
VH: not shown
VL: NFMLTQPHSVSESPGKTVTISCTRSSGSLANYYVQWYQQRPGSSPTIVIFANNQRPSGVPDRFSGSIDSSSNSASLTISGLKTEDIADYYCQTYDPYSVVFGGGTKLEVLR
**Q.** Which Kd (recombinant human IL-17A [4]) does the source give for B10 here?
**A.** 0.3 nM

B11: CAT-2200 designed Vlambda-Ckappa chimeric Fab, design 36 (E83A_T105E) (Fab, V domains shown)
VH: not shown
VL: NFMLTQPHSVSESPGKTVTISCTRSSGSLANYYVQWYQQRPGSSPTIVIFANNQRPSGVPDRFSGSIDSSSNSASLTISGLKTEDAADYYCQTYDPYSVVFGGGTKLEVLR
**Q.** Which Kd (recombinant human IL-17A [4]) does the source give for B11 here?
**A.** 0.3 nM

B12: H3 wild-type lambda Mab (antibody, human IgG1, lambda)
heavy: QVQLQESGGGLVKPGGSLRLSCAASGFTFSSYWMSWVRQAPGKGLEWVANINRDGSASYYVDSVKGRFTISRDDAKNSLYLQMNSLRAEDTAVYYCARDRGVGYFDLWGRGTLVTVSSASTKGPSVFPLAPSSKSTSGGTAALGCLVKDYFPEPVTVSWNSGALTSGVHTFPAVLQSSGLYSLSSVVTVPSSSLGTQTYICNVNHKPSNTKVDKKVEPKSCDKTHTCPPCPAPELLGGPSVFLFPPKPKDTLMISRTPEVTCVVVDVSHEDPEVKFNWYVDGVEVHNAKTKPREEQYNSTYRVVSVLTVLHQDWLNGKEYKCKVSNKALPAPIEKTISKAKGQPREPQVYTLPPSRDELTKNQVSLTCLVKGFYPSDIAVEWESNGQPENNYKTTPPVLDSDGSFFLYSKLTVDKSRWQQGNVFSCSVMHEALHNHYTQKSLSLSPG
light: QSALTQPASVSGSPGQSITISCTGTSSDVGGYNFVSWYQQHPGKAPKLMIYDVSDRPSGVSDRFSGSKSGNTASLIISGLQADDEADYYCSSYGSSSTHVIFGGGTKVTVLGQPKAAPSVTLFPPSSEELQANKATLVCLISDFYPGAVTVAWKADSSPVKAGVETTTPSKQSNNKYAASSYLSLTPEQWKSHRSYSCQVTHEGSTVEKTVAPTECS
notes: as for B1
**Q.** What does the source list for B12?
**A.** Kd [1]: 3400 nM; Kd [2]: 1100 nM; Kd (recombinant human HER3): 85 nM; Kd (human recombinant FcRn): 48.6 nM
